Assay results: patent US20210101970A1 (Pfizer, published 2021)
Each block holds one binder with its values, some of them ahead of it.

How the values were obtained:
human CXCR5 [1] = biological target: T1, human CXCR5 (human, UniProt P32302 1-372); test: flow cytometry, human PBMC B cells
T1 construct: also called hCXCR5; C-X-C chemokine receptor type 5
T1 sequence: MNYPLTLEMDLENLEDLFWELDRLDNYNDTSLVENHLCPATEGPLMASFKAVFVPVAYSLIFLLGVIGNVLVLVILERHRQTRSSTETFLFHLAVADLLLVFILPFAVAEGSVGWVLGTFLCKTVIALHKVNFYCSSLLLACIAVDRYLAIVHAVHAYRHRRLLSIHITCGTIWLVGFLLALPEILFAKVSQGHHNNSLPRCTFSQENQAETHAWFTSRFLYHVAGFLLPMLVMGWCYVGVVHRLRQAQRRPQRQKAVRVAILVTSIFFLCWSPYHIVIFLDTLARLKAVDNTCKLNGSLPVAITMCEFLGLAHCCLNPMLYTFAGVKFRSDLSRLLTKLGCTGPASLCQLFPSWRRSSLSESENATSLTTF
Description: (§1) The apparent affinity for cell surface CXCR5 of chimeric and humanized CXCR5 fucosylated and afucosylated antibodies was assessed. More specifically, to determine the apparent affinity of chimeric and humanized CXCR5 antibodies to CXCR5-expressing cells, cell binding experiments were performed on human and cynomolgus monkey peripheral blood mononuclear cells (PBMCs) and human tonsillar mononuclear cells (TMCs). The apparent affinity of CXCR5 mab binding to CXCR5+ cells (B cells, bona fide Tfh cells, and circulating Tfh-like cells) was calculated as the EC50 of equilibrium binding titration curves in which the geometric mean fluorescence intensity (gMFI) of the antigen binding population was quantified by flow cytometry.
(§2) Following isolation, PBMCs were plated at a density of 1.0×10⁵ cells per well and CD4+ TMCs were plated at a density of 2.0×10⁵ cells per well in isolation buffer (PBS containing 1% FBS and 1 mM EDTA) in 96 well U-bottom plates. The plates were then centrifuged at 1500 rpm for 5 minutes at room temperature. PBMCs and CD4+ TMCs were resuspended in Fluorescence-activated cell sorting (FACS) buffer (PBS containing 1% FBS) containing human crystallized fragment Fc block (2 μL per well; Biolegend) and 4-fold serial dilutions of the antibodies (11-point dilution series, beginning at 5000 ng/mL for PBMCs and 312.5 ng/mL for CD4+ TMCs) and incubated on ice for 2 hours. PBMCs and CD4+ TMCs were then washed with FACS buffer 3 times and resuspended in 50-100 μL of FACs buffer containing fluorescent-conjugated antibodies for staining lymphocyte subsets and a fluorescent-conjugated secondary antibody against human Ig to detect CXCR5 monoclonal antibodies (mAbs). After incubation for 30 minutes at 4° C., PBMCs and CD4+ TMCs were washed with FACS buffer 2 times and resuspended in 125 μL of 0.5% paraformaldehyde (PFA) in PBS. Plates were stored at 4° C. until analysis by flow cytometry (BD LSRFortessa™ Cell Analyzer, BD Biosciences, Franklin Lakes, N.J.).
(§3) The cell binding titration curves were generated by plotting the gMFI of the antigen binding population against the log of CXCR5 antibody concentration. EC₅₀ values were determined using GraphPad Prism® (version 6.0, GraphPad Software, Inc, San Diego, Calif.) nonlinear-regression curve fits and a sigmoidal log of agonist dose-response model, according to the following equation

cynomolgus monkey CXCR5 [2] = biological target: T2, cynomolgus monkey CXCR5 (cynomolgus monkey, UniProt P32302 1-372 (human entry)); test: flow cytometry on cynoCXCR5-300.19 cells, fucosylated chimeric antibody
T2 construct: also called cynoCXCR5; NHP CXCR5
T2 chain: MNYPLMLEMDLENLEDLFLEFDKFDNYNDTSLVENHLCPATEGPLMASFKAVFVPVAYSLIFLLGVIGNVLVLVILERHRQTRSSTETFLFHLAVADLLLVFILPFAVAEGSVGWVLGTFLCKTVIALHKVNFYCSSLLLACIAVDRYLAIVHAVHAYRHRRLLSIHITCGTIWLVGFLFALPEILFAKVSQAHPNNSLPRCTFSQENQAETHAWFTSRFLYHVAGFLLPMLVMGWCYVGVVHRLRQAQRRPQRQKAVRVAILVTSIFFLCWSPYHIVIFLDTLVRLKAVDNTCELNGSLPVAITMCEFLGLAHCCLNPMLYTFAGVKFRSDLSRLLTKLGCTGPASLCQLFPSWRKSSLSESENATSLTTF

CXCR3 = biological target: T3, CXCR3 (human, UniProt P49682 1-368); test: flow cytometry (GMFI) on fixed CXCR3 cells, chimeric antibody, goat anti-human PE
T3 construct: whole, on cells
T3 sequence (looked up): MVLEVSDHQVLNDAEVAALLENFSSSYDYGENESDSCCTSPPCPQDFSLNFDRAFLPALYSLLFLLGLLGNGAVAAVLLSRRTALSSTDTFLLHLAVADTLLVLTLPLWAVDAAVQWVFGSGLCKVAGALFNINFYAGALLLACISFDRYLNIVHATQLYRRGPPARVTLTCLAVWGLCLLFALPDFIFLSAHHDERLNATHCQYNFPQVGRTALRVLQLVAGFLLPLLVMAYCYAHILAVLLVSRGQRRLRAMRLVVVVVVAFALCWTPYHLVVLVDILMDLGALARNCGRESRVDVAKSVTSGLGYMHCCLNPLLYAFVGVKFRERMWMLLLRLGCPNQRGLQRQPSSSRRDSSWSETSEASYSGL
Description: (§4) To determine the specificity of the antibodies for CXCR5, the binding of the antibodies to cells expressing other […] was assessed. Briefly, FlowCellect chemokine receptor cell lines expressing CXCR1, CXCR2, or CXCR3 (EMD Millipore, Billerica, Mass.), and Jurkats (ATCC, Manassas, Va.), which express CXCR4, were stained with 5 μg/ml or 10 μg/ml of each anti-CXCR5 chimeric antibody. The cells were then incubated with goat anti-human conjugated with PE (Southern Biotech, Birmingham, Ala.) prior to analysis by flow cytometry using a FACSVerse Analyzer (BD Biosciences, Franklin Lakes, N.J.).

human CXCR5 [3] = biological target: T1, human CXCR5; test: cell-based or functional assay
CXCR1 = biological target: T4, CXCR1 (human, UniProt P25024 1-350); test: flow cytometry (GMFI) on fixed CXCR1 cells, chimeric antibody, goat anti-human PE
T4 construct: whole, on cells
T4 sequence (looked up): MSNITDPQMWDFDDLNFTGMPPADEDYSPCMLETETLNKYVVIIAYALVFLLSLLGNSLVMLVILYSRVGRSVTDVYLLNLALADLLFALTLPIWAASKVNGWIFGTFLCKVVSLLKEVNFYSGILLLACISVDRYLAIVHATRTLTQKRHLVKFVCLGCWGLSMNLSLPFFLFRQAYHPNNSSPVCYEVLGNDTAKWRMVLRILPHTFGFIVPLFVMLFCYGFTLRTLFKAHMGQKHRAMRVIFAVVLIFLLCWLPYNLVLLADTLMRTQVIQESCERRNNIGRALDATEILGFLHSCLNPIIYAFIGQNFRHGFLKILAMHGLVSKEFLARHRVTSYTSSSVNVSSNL
Description: as §4

human CXCR5 [4] = biological target: T1, human CXCR5; test: flow cytometry on Raji cells, fucosylated chimeric antibody
Description: The fucosylated chimeric antibodies were then purified using protein A columns. The apparent affinity (cell binding EC50s) of chimeric antibody binding to Raji cells was determined by flow cytometry using a FACSVerse Analyzer (BD Bioscience, Franklin Lakes, N.J.) and are shown in Table 3.

cynomolgus monkey CXCR5 [5] = biological target: T2, cynomolgus monkey CXCR5; test: flow cytometry, cynomolgus PBMC B cells
Description: as §1, §2, §3

CXCR2 = biological target: T5, CXCR2 (human, UniProt P25025 1-360); test: flow cytometry (GMFI) on fixed CXCR2 cells, chimeric antibody, goat anti-human PE
T5 construct: whole, on cells
T5 sequence (looked up): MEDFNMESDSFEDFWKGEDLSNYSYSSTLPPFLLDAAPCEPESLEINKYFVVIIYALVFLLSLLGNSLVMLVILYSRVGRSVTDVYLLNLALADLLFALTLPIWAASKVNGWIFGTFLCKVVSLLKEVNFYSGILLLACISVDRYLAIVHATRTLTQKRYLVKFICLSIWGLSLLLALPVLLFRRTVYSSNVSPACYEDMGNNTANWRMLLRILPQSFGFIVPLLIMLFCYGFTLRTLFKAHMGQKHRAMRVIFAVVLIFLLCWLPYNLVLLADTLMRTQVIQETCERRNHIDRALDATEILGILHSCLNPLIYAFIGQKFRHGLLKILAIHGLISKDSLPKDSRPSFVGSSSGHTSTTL
Description: as §4

CXCR4 = biological target: T6, CXCR4 (human, UniProt P61073 1-352); test: flow cytometry (GMFI) on Jurkat cells, which express CXCR4; chimeric antibody, goat anti-human PE
T6 construct: whole, on cells
T6 sequence (P61073 whole entry): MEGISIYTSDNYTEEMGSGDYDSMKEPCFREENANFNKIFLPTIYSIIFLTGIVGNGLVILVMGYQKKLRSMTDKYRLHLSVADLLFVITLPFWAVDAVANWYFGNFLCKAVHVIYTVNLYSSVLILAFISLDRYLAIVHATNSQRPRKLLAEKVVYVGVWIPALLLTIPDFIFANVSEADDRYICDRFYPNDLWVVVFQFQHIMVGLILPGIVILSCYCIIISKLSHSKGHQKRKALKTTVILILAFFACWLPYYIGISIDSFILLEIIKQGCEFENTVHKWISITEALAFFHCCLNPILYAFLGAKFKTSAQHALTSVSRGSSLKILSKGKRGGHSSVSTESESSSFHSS
Description: as §4

- EC50 (human CXCR5 [1]): 161 pM
- EC50 (cynomolgus monkey CXCR5 [2]): 831 pM
- ADCC Activity Average EC50, Human B Cells (human CXCR5 [3]): 11700 pM
- EC50 (human CXCR5 [4]): 390 pM
- EC50 (cynomolgus monkey CXCR5 [5]): 549 pM
B1: Chimeric 41A10 (antibody, human IgG1, kappa, V domains shown)
VH: EVQLVESGGDLVKPGGSLKLSCAASGFTFRSYGMSWVRQTPDKRLEWVATISSGGTYTFYPDILKGRITISRDNAKNTLYLQMSNLKSEDTAMYYCARRGEDYRGALEHWGQGTSVTVSS
VL: QIVLTQSPAVMSASPGEKVTMTCSASSSVNYIHWYQQKSGTSPKRWIYETSRLASGVPVRFSGSGSGTSYSLTISTMEAEDAATYYCQQWSSNPLTFGAGTKLELKR
notes: mouse V regions on human IgG1/kappa; fucosylated; also called 41A10 (chimeric)
- binding result (CXCR3): no binding (tested: 5 or 10 µg/ml (not on the sheet))
- binding result (CXCR1): no binding (tested: 5 or 10 µg/ml (not on the sheet))
- binding result (CXCR2): no binding (tested: 5 or 10 µg/ml (not on the sheet))

- EC50 (cynomolgus monkey CXCR5 [2]): 60.3 pM
- EC50 (human CXCR5 [4]): 42.1 pM
B2: chimeric 5H7 (antibody, human IgG1, kappa, V domains shown)
VH: EVKLVESGGGLVQPGDSLRLSCATSGFTFTDFYMSWVRQPPGRALEWLGFIRNKANGYTTEYSASVKGRFTISRDNSQSILYLQMNTLRAGDSATYYCVRVYGSTLHYWGQGTILTVSS
VL: DVVVTQSPDSLAVSLGQRATISCRASESVEYHGTSLMHWYQQKPGQPPKLLIYAASNVESGVPARFSGSGSGTDFSLNIHPVEEGDVSMFFCQQSRKVPWTFGGGTKLEIKR
notes: mouse V regions on human IgG1/kappa; fucosylated; also called 5H7 (chimeric)
- binding result (CXCR3): no binding (tested: 5 or 10 µg/ml (not on the sheet))
- binding result (CXCR1): no binding (tested: 5 or 10 µg/ml (not on the sheet))
- binding result (CXCR4): no binding (tested: 5 or 10 µg/ml (not on the sheet))
- binding result (CXCR2): no binding (tested: 5 or 10 µg/ml (not on the sheet))
